B1: 050516-V06 (protein)
chain: MALPVTALLLPLALLLHAARPDIVMTQSPSSLSASVGDRVTITCKASQSVTNDVAWYQQKPGKAPKLLIYYASNRYTGVPSRFSGSGSGTDFTLTISSLQPEDFATYYCQQDYRSPWTFGGGTKVEIKRLEGKPIPNPLLGLDSTGSGEDLKNVFPPEVAVFEPSKAEIAHTQKATLVCLATGFYPDHVELSWWVNGKEVHSGVCTDPQPLKEQPALNDSRYCLSSRLRVSATFWQNPRNHFRCQVQFYGLSENDEWTQDRAKPVTQIVSAEAWGRADCGITSASYHQGVLSATILYEILLGKATLYAVLVSALVLMAMVKRKDSRGRAKRSGSGATNFSLLKQAGDVEENPGPTSMDWIWRILFLVGAATGAHSFEQVQLEESGGGVVRPGRSLRLSCAASGFTFSDYGVNWIRQAPGKGLEWVTIIWGDGRTDYNSALKSRFTVSRNNSNNTLSLQMNSLTTEDTAVYYCVRAPGNRAMEYWGQGVLVTVSSTREQKLISEEDGSGIQNPDPAVYQLRDSKSSDKSVCLFTDFDSQTNVSQSKDSDVYITDKCVLDMRSMDFKSNSAVAWSNKSDFACANAFNNSIIPEDTFFPSSDVPCDVKLVEKSFETDTNLNFQNLSVIGFRILLLKVAGFNLLMTLRLWSSRAKRSGSGVKQTLNFDLLKLAGDVESNPGPSRGHMTEYKPTVRLATRDDVPRAVRTLAAAFADYPATRHTVDPDRHIERVTELQELFLTRVGLDIGKVWVADDGAAVAVWTTPESVEAGAVFAEIGPRMAELSGSRLAAQQQMEGLLAPHRPKEPAWFLATVGVSPDHQGKGLGSAVVLPGVEAAERAGVPAFLETSAPRNLPFYERLGFTVTADVEVPEGPRTWCMTRKPGA
modifications: Synthetic Immune Receptor (SIR)
B2: 041216-C05 (protein)
chain: MALPVTALLLPLALLLHAARPDIQMTQSPSSLSASVGDRVTITCRSSQSIVHSVGNTFLEWYQQKPGKAPKLLIYKVSNRFSGVPSRFSGSGSGTDFTLTISSLQPEDFATYYCFQGSQFPYTFGQGTKVEIKRLEGKPIPNPLLGLDSTGSGEDLKNVFPPEVAVFEPSKAEIAHTQKATLVCLATGFYPDHVELSWWVNGKEVHSGVCTDPQPLKEQPALNDSRYCLSSRLRVSATFWQNPRNHFRCQVQFYGLSENDEWTQDRAKPVTQIVSAEAWGRADCGITSASYHQGVLSATILYEILLGKATLYAVLVSALVLMAMVKRKDSRGRAKRSGSGATNFSLLKQAGDVEENPGPTSMDWIWRILFLVGAATGAHSFEEVQLVESGGGLVQPGGSLRLSCAASGYEFSRSWMNWVRQAPGKGLEWVGRIYPGDGDTNYSGKFKGRFTISADTSKNTAYLQMNSLRAEDTAVYYCARDGSSWDWYFDVWGQGTLVTVSSTREQKLISEEDGSGTPFPSLAPPIMLLVDGKQQMVVVCLVLDVAPPGLDSPIWFSAGNGSALDAFTYGPSPATDGTWTNLAHLSLPSEELASWEPLVCHTGPGAEGHSRSTQPMHLSGEASTARTCPQEPLRGTPGGALWLGVLRLLLFKLLLFDLLLTCSCLCDPAGPLPSPATTTRLRALGSHRLHPATETGGREATSSPRPQPRDRRWGDTPPGRKPGSPVRAKRSGSGVKQTLNFDLLKLAGDVESNPGPSRGHMTEYKPTVRLATRDDVPRAVRTLAAAFADYPATRHTVDPDRHIERVTELQELFLTRVGLDIGKVWVADDGAAVAVWTTPESVEAGAVFAEIGPRMAELSGSRLAAQQQMEGLLAPHRPKEPAWFLATVGVSPDHQGKGLGSAVVLPGVEAAERAGVPAFLETSAPRNLPFYERLGFTVTADVEVPEGPRTWCMTRKPGA
modifications: Polynucleotide encoding a Synthetic Immune Receptor (SIR)
B3: 091216-A03 (protein)
chain: MALPVTALLLPLALLLHAARPLEGKPIPNPLLGLDSTGSGEDLKNVFPPEVAVFEPSKAEIAHTQKATLVCLATGFYPDHVELSWWVNGKEVHSGVCTDPQPLKEQPALNDSRYCLSSRLRVSATFWQNPRNHFRCQVQFYGLSENDEWTQDRAKPVTQIVSAEAWGRADCGITSASYHQGVLSATILYEILLGKATLYAVLVSALVLMAMVKRKDSRGRAKRSGSGATNFSLLKQAGDVEENPGPTSTMALPVTALLLPLALLLHAARPDIQMTQSPSSLSASVGDRVTITCRSSQSIVHSVGNTFLEWYQQKPGKAPKLLIYKVSNRFSGVPSRFSGSGSGTDFTLTISSLQPEDFATYYCFQGSQFPYTFGQGTKVEIKRGGGGSGGGGSGGGGSEVQLVESGGGLVQPGGSLRLSCAASGYEFSRSWMNWVRQAPGKGLEWVGRIYPGDGDTNYSGKFKGRFTISADTSKNTAYLQMNSLRAEDTAVYYCARDGSSWDWYFDVWGQGTLVTVSSTREQKLISEEDGSGIQNPDPAVYQLRDSKSSDKSVCLFTDFDSQTNVSQSKDSDVYITDKCVLDMRSMDFKSNSAVAWSNKSDFACANAFNNSIIPEDTFFPSSDVPCDVKLVEKSFETDTNLNFQNLSVIGFRILLLKVAGFNLLMTLRLWSSRAKRSGSGVKQTLNFDLLKLAGDVESNPGPSRGHMTEYKPTVRLATRDDVPRAVRTLAAAFADYPATRHTVDPDRHIERVTELQELFLTRVGLDIGKVWVADDGAAVAVWTTPESVEAGAVFAEIGPRMAELSGSRLAAQQQMEGLLAPHRPKEPAWFLATVGVSPDHQGKGLGSAVVLPGVEAAERAGVPAFLETSAPRNLPFYERLGFTVTADVEVPEGPRTWCMTRKPGA
modifications: Synthetic Immune Receptor (SIR)
B4: 041417-B06 (protein)
chain: MALPVTALLLPLALLLHAARPEVQLQQSGPGLVKPSQTLSLTCAISGDSVLSNSDTWNWIRQSPSRGLEWLGRTYHRSTWYDDYASSVRGRVSINVDTSKNQYSLQLNAVTPEDTGVYYCARDRLQDGNSWSDAFDVWGQGTMVTVSSLEIQNPDPAVYQLRDSKSSDKSVCLFTDFDSQTNVSQSKDSDVYITDKCVLDMRSMDFKSNSAVAWSNKSDFACANAFNNSIIPEDTFFPSSDVPCDVKLVEKSFETDTNLNFQNLSVIGFRILLLKVAGFNLLMTLRLWSSRAKRSGSGVKQTLNFDLLKLAGDVESNPGPTSMDWIWRILFLVGAATGAHSFEQSALTQPASVSGSPGQSITISCTGTSSDVGGYNYVSWYQQHPGKAPKLMIYDVSNRPSGVSNRFSGSKSGNTASLTISGLQAEDEADYYCSSYTSSSTLVYVFGTGTKVTVLTREDLKNVFPPEVAVFEPSKAEIAHTQKATLVCLATGFYPDHVELSWWVNGKEVHSGVCTDPQPLKEQPALNDSRYCLSSRLRVSATFWQNPRNHFRCQVQFYGLSENDEWTQDRAKPVTQIVSAEAWGRADCGITSASYHQGVLSATILYEILLGKATLYAVLVSALVLMAMVKRKDSRGRAKRSGSGATNFSLLKQAGDVEENPGPSRGHMTEYKPTVRLATRDDVPRAVRTLAAAFADYPATRHTVDPDRHIERVTELQELFLTRVGLDIGKVWVADDGAAVAVWTTPESVEAGAVFAEIGPRMAELSGSRLAAQQQMEGLLAPHRPKEPAWFLATVGVSPDHQGKGLGSAVVLPGVEAAERAGVPAFLETSAPRNLPFYERLGFTVTADVEVPEGPRTWCMTRKPGA
B5: 102715-E07 (protein)
chain: MALPVTALLLPLALLLHAARPDIQMTQSPSSLSASVGDRVTITCRASQTIWSYLNWYQQRPGKAPNLLIYAASSLQSGVPSRFSGRGSGTDFTLTISSLQAEDFATYYCQQSYSIPQIFGQGTKLEIKLEGKPIPNPLLGLDSTGSGEDLKNVFPPEVAVFEPSKAEIAHTQKATLVCLATGFYPDHVELSWWVNGKEVHSGVCTDPQPLKEQPALNDSRYCLSSRLRVSATFWQNPRNHFRCQVQFYGLSENDEWTQDRAKPVTQIVSAEAWGRADCGITSASYHQGVLSATILYEILLGKATLYAVLVSALVLMAMVKRKDSRGRAKRSGSGATNFSLLKQAGDVEENPGPTSMDWIWRILFLVGAATGAHSFEQVQLQQSGPGLVKPSQTLSLTCAISGDSVSSNSAAWNWIRQSPSRGLEWLGRTYYRSKWYNDYAVSVKSRITINPDTSKNQFSLQLNSVTPEDTAVYYCAREVTGDLEDAFDIWGQGTMVTVSSTREQKLISEEDGSGIQNPDPAVYQLRDSKSSDKSVCLFTDFDSQTNVSQSKDSDVYITDKCVLDMRSMDFKSNSAVAWSNKSDFACANAFNNSIIPEDTFFPSSDVPCDVKLVEKSFETDTNLNFQNLSVIGFRILLLKVAGFNLLMTLRLWSSRAKRSGSGVKQTLNFDLLKLAGDVESNPGPSRGHMTEYKPTVRLATRDDVPRAVRTLAAAFADYPATRHTVDPDRHIERVTELQELFLTRVGLDIGKVWVADDGAAVAVWTTPESVEAGAVFAEIGPRMAELSGSRLAAQQQMEGLLAPHRPKEPAWFLATVGVSPDHQGKGLGSAVVLPGVEAAERAGVPAFLETSAPRNLPFYERLGFTVTADVEVPEGPRTWCMTRKPGA
modifications: Synthetic Immune Receptor (SIR)
B6: 012617-S04 (protein)
chain: MALPVTALLLPLALLLHAARPLEGKPIPNPLLGLDSTGSGEDLKNVFPPEVAVFEPSKAEIAHTQKATLVCLATGFYPDHVELSWWVNGKEVHSGVCTDPQPLKEQPALNDSRYCLSSRLRVSATFWQNPRNHFRCQVQFYGLSENDEWTQDRAKPVTQIVSAEAWGRADCGITSASYHQGVLSATILYEILLGKATLYAVLVSALVLMAMVKRKDSRGRAKRSGSGATNFSLLKQAGDVEENPGPTSMALPVTALLLPLALLLHAARPDIQMTQSPSSLSASVGDRVTITCRASSSVSYMHWYQQKPGKAPKPLIYAPSNLASGVPSRFSGSGSGTDFTLTISSLQPEDFATYYCQQWSFNPPTFGQGTKVEIKRGGGGSGGGGSGGGGSEVQLVESGGGLVQPGGSLRLSCAASGYTFTSYNMHWVRQAPGKGLEWVGAIYPGNGDTSYNQKFKGRFTISVDKSKNTLYLQMNSLRAEDTAVYYCARVVYYSNSYWYFDVWGQGTLVTVSSTREQKLISEEDGSGIQNPDPAVYQLRDSKSSDKSVCLFTDFDSQTNVSQSKDSDVYITDKCVLDMRSMDFKSNSAVAWSNKSDFACANAFNNSIIPEDTFFPSSDVPCDVKLVEKSFETDTNLNFQNLSVIGFRILLLKVAGFNLLMTLRLWSSRAKRSGSGVKQTLNFDLLKLAGDVESNPGPSRGHMTEYKPTVRLATRDDVPRAVRTLAAAFADYPATRHTVDPDRHIERVTELQELFLTRVGLDIGKVWVADDGAAVAVWTTPESVEAGAVFAEIGPRMAELSGSRLAAQQQMEGLLAPHRPKEPAWFLATVGVSPDHQGKGLGSAVVLPGVEAAERAGVPAFLETSAPRNLPFYERLGFTVTADVEVPEGPRTWCMTRKPGA

System: target antigen-expressing cell line
Assay: Jurkat NFAT-GFP assay, coculture with target cell lines expressing the respective target antigen (summary Table 10A)
Assay type: cell-based, human
Parameters: key: The signs +/−, +, 2+ etc. after the name of the cell lines indicate the relative degree of positivity on the Jurkat-NFAT-GFP assay as measured by the % GFP positive cells; +: relative degree of positivity on the Jurkat-NFAT-GFP assay as measured by the % GFP positive cells; 2+: relative degree of positivity on the Jurkat-NFAT-GFP assay as measured by the % GFP positive cells
Conditions: relative % GFP positive cells; for NFAT-GFP ASSAY Positive Cell lines: RAJI: SIR-expressing Jurkat-NFAT-GFP cells cocultured with RAJI; for NFAT-GFP ASSAY Positive Cell lines: NALM6: SIR-expressing Jurkat-NFAT-GFP cells cocultured with NALM6
Summary of the method: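 Coculture of SIR-bearing Jurkat NFAT-GFP reporters with target cells, ~1:2 E:T, ~4–18 h. FACS quantified % GFP+ cells, ranked semi-quantitatively against parental Jurkat-NFAT-GFP.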

Row | Molecule | NFAT-GFP ASSAY Positive Cell lines: RAJI | NFAT-GFP ASSAY Positive Cell lines: NALM6
1 | B1 | RAJI (+/−) | –
2 | B2 | RAJI (+/−), NALM6 | (+/−)
3 | B3 | RAJI (+) | –
4 | B4 | RAJI (+/−) | –
5 | B5 | RAJI (+) | –
6 | B6 | – | (+/−)
